Here are results for three molecules from publication PMC3632103.

Assay in all cases: EMSA
Series [1] concerns the target T1, D2 helicase WT (His-MBP fusion) (Bacteriophage T5, UniProt Q6QGH9 1-928).
T1 sequence: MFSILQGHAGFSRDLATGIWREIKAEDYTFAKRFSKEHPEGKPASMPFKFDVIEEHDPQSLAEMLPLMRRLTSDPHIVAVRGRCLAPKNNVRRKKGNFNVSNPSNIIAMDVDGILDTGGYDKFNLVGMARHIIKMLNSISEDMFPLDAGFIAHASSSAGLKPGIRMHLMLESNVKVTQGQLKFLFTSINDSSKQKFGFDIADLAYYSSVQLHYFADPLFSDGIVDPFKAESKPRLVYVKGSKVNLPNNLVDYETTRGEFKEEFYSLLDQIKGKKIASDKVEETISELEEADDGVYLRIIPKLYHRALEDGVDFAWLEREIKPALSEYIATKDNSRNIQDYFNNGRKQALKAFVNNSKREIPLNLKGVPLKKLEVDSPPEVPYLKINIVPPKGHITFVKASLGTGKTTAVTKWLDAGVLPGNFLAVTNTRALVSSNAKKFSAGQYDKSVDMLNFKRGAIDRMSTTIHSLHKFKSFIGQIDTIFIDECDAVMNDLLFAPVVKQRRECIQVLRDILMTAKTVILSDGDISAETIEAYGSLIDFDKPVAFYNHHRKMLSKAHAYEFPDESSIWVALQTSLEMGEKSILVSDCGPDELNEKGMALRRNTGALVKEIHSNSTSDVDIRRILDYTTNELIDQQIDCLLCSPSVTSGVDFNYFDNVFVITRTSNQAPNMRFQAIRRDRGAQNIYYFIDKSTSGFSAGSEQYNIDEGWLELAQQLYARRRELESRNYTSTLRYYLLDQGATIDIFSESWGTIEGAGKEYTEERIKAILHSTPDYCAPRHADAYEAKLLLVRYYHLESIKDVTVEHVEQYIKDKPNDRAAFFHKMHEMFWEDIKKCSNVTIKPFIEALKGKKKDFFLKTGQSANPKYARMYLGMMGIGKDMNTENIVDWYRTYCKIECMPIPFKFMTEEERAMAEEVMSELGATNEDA

For series [2], the target named is T1, D2 helicase WT (His-MBP fusion). This is another data set of the same source.
Series [3] has as its target T2, D2 helicase K405E (His-MBP fusion) (Bacteriophage T5, UniProt Q6QGH9 1-928, K405E).
T2 sequence: T1 sequence with K405E

Positions count from the first letter of the chain named. Where two headings read alike, the source gives them in different places.

B1: T55 (ssDNA)
DNA: TTTTTTTTTTTTTTTTTTTTTTTTTTTTTTTTTTTTTTTTTTTTTTTTTTTTTTT
As to B1, the binding result in series [1] was “binds”. As to TTTTTTTTTTTTTTTTTTTTTTTTT (ssDNA) [T25], the binding result in series [2] and in series [3] was “binds” in each case.

Take TTTTTTTTTTTTTTTTTTTTTTTTTTTTTTTTTTT (ssDNA) [T35]: the binding result in series [1] was “binds”.
